Experimental data from patent US20240247080A1, “GLP1/GIP/NPY2 RECEPTOR TRIPLE AGONISTS” (Boehringer Ingelheim International GmbH, priority 2022, published 2024).
Changes are numbered by the printed parent chain. Non-standard residues stand in square brackets, D forms with d. Groups on a side chain read outwards from the residue. No end group written: not given here. *: point of attachment. C18 diacid = O=C(O)CCCCCCCCCCCCCCCCC(=O)*; AEEA = NCCOCCOCC(=O)O; Aib = CC(C)(N)C(=O)O

T1: human neuropeptide Y2 (NPY2) receptor (human, UniProt P49146 1-381)
T1 sequence (looked up): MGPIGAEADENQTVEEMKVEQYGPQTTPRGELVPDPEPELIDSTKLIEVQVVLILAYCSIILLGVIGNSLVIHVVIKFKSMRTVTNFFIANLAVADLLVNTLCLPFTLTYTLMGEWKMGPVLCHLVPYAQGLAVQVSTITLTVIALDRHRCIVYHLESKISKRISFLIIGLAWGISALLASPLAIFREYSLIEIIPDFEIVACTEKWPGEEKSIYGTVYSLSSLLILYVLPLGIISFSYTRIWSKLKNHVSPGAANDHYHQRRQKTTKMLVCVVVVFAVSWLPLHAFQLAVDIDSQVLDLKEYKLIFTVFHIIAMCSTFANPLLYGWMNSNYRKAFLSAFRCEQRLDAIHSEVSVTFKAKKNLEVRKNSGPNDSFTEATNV

T2: human GIP receptor (human, UniProt P48546 22-466)
T2 sequence (looked up): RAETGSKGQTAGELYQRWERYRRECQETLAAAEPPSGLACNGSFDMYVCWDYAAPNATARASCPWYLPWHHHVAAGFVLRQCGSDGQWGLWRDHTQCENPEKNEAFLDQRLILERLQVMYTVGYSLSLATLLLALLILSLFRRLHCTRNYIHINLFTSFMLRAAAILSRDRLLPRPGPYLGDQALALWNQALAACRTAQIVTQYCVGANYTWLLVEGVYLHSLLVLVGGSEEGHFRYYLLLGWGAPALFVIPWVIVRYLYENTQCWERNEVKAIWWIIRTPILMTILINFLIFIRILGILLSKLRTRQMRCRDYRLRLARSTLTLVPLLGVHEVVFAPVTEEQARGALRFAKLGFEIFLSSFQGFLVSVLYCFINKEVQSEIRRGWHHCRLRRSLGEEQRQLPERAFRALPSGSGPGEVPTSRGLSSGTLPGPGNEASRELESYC

B1: Compound 37 (peptide)
peptide: YXEGTFTSDYSIXLEKQAQXAFVQWLIKGGPESGASLRHYYNWLTRQRY
modifications: Aib at 2, 13, 20; K28 side chain: C20DA-gGlu-gGlu-gGlu-gGlu-gGlu-gGlu-eLys; C-terminal NH2
B2: Compound 50 (peptide)
peptide: B1 peptide with Q24E, E32S, G34Y, A35E
modifications: Aib at 2, 13, 20; K28 side chain: C20DA-gGlu-gGlu-gGlu-gGlu-gGlu-gGlu-eLys; C-terminal NH2
B3: Compound 39 (peptide)
peptide: B1 peptide with Q24E, E32S, L37X
modifications: Aib at 2, 13, 20, 37; NMeR 48; K28 side chain: C20DA-gGlu-gGlu-gGlu-gGlu-gGlu-gGlu-eLys; C-terminal NH2
B4: Compound 38 (peptide)
peptide: B1 peptide with Q24E, E32S, A35V, L37X
modifications: Aib at 2, 13, 20, 37; K28 side chain: C20DA-gGlu-gGlu-gGlu-gGlu-gGlu-gGlu-eLys; C-terminal NH2
B5: Compound 53 (peptide)
peptide: B1 peptide
modifications: Aib at 2, 13, 20; K28 side chain: C18DA-gGlu-gGlu-gGlu-gGlu-gGlu; C-terminal NH2
B6: Compound 5 (peptide)
peptide: B1 peptide with Q24E, E32S
modifications: Aib at 2, 13, 20; DLeu 37; DHis 39; DArg 46; DTyr 49; K28 side chain: C20DA-gGlu-gGlu-gGlu-gGlu-gGlu-gGlu-eLys; C-terminal NH2
B7: Compound 47 (peptide)
peptide: B1 peptide with E32S, A35V
modifications: Aib at 2, 13, 20; K28 side chain: C20DA-gGlu-gGlu-gGlu-gGlu-gGlu-gGlu-eLys; C-terminal NH2

Experiments:
Test in all cases: cell-based or functional assay
human GLP-1 receptor = human GLP-1 receptor (human, UniProt P43220 24-463)
[1] = biological target: T1, human neuropeptide Y2 (NPY2) receptor
human GIP receptor = biological target: T2, human GIP receptor

Row | EC50, CreLuc assay, 0.5% hP (human GLP-1 receptor) | EC50, CreLuc assay, 100% hP (human GLP-1 receptor) | EC50, CreLuc assay, 0.5% hP [1] | EC50, CreLuc assay, 100% hP [1] | EC50, CreLuc assay, 0.5% hP (human GIP receptor) | EC50, CreLuc assay, 100% hP (human GIP receptor) | Binder
1 | 0.09 nM | 3.17 nM | 18.7 nM | 93.5 nM | 0.12 nM | 0.65 nM | Y[Aib]EGTFTSDYSI[Aib]LEKQAQ[Aib]AFVQWLIK([AEEA-AEEA-Glu-Glu-Glu-Glu-C18 diacid])GGPESGASLRHYYNWLTRQRY-NH2 (also: TFA salt) [Compound 52]
2 | 0.9 nM | 42.8 nM | 16.9 nM | 86.7 nM | 2.99 nM | 31.1 nM | Y[Aib]EGTFTSDYSI[Aib]LEKQAQ[Aib]AFVQWLIKGGQRYYASLRHYYNWLTRQRY-NH2 (not fully specified (residue 28); also: TFA salt) [Compound 6]
3 | 0.11 nM | 5.13 nM | 9.53 nM | 35.5 nM | 0.24 nM | 1.44 nM | B1
4 | 0.13 nM | 3.75 nM | 11.8 nM | 52.5 nM | 0.12 nM | 1.47 nM | B2
5 | 0.09 nM | 0.82 nM | 26.9 nM | 61.5 nM | 0.06 nM | 0.4 nM | B3
6 | 0.06 nM | 1.28 nM | 6.9 nM | 17.8 nM | 0.04 nM | 0.7 nM | B4
7 | 0.09 nM | 3.46 nM | 13.2 nM | 50.6 nM | 0.13 nM | 1.38 nM | B5
8 | 0.11 nM | 1.43 nM | > 99.9 nM | > 999 nM | 0.17 nM | 1.07 nM | B6
9 | 0.07 nM | 1.14 nM | 7.9 nM | 30.5 nM | 0.25 nM | 0.73 nM | B7
